We go through two molecules from doi:10.1101/2025.01.28.635353, “DyAb: sequence-based antibody design and property prediction in a low-data regime” (bioRxiv, 2025).

Positions count from the first letter of the chain named.

The target in the assay is T1, EGFR (Homo sapiens, isoform 1 (assumed), UniProt P00533).
T1 construct: EGFR, the target antigen injected in SPR
As to the kind of experiment: SPR; antibody captured on a Protein A chip, target antigen injected 5 min, dissociation 10 min at 30 µL/min; multi-cycle mode; 37 degC; HBS-EP+ (10 mM Hepes pH 7.4, 150 mM NaCl, 0.3 mM EDTA, 0.05% Surfactant P20); 1:1 Langmuir fit; absolute affinities of the leads are medians across all experimental rounds. As to conditions: both partners purified. In general terms: In SPR one partner is held on a chip, and binding of the other changes the refractive index at the surface.

B1: anti-EGFR lead (antibody, V domains shown)
VH: EVKLQQSGDETMRPGASVRMSCKAYGYTFTDYSVHWIRQRPGQGLEWIGIIIPLIDTTRYNQKFKGKAVLTADTSSDTAYMELSRLTFEDSAVYYCARSYGSSGDDWFAYWGQGTLVTVSS
VL: DTVLTQSPALSVSPGERVDISCRASESVSTLLHWYQQKPGQQPTLLISLASSLESGVPARFSGSGSGTDFTLTIDPVEADDTAIYYCQESWNEPYAFGAGTKLELK
notes: the Fab of this antibody was crystallised and deposited as PDB 9MU1 (heavy chain); the Fab of this antibody was crystallised and deposited as PDB 9MU1 (light chain); The methods tell the production (Expi293, purified) only of the DyAb designs; The Fab for the crystal was made in CHO cells; also called aEGFR lead; starting point lead candidate
Turning to B1, the Kd – broadly, the free concentration of one partner at which half of the binding sites on the other are occupied at equilibrium, for simple one-to-one binding – amounted to 3 nM.

B2: aEGFR-R1-1 (antibody, V domains shown)
VH: B1 VH with V34M, V69T, G101D, S102P
VL: B1 VL
notes: the Fab was crystallised and deposited as PDB 9MSW (heavy chain); as the heavy chain of m1 with four mutations across CDR-H1, CDR-H3 and the framework (Kabat numbering); the Fab was crystallised and deposited as PDB 9MSW (light chain); The Fab for the crystal was made in CHO cells; also called R1-1 design; DyAb design aEGFR-R1-1; source: Expi293, transiently expressed, purified from supernatant
On to B2, for which the binding result is “binds”.
